Laboratory results reported in patent US20030175885A1 (REGEN BIOTECH, published 2003).

B1: synthetic peptide NKDIL (peptide)
peptide: NKDIL
notes: Made by solid phase synthesis; also called 2nd fas-1 domain-derived synthetic peptide; NKDIL (a.a. 354-358)
B2: synthetic peptide EPDIM (peptide)
peptide: EPDIM
notes: Made by solid phase synthesis; also called 4th fas-1 domain-derived synthetic peptide; EPDIM (a.a. 615-619)

How the values were obtained:
α3β1 integrin [1] = target: T1, α3β1 integrin (UniProt P26006 33-1051; P05556 21-798); assay: HCE cell adhesion to coated peptide (100 µM) with function-blocking anti-integrin mAbs
T1 construct: whole, on cells; Never used as a purified protein; It is always the receptor on HCE cells in adhesion assays; also called integrin α3β1; functional receptor for βig-h3
T1 sequence (P26006 33-1051, chain 1 of 2): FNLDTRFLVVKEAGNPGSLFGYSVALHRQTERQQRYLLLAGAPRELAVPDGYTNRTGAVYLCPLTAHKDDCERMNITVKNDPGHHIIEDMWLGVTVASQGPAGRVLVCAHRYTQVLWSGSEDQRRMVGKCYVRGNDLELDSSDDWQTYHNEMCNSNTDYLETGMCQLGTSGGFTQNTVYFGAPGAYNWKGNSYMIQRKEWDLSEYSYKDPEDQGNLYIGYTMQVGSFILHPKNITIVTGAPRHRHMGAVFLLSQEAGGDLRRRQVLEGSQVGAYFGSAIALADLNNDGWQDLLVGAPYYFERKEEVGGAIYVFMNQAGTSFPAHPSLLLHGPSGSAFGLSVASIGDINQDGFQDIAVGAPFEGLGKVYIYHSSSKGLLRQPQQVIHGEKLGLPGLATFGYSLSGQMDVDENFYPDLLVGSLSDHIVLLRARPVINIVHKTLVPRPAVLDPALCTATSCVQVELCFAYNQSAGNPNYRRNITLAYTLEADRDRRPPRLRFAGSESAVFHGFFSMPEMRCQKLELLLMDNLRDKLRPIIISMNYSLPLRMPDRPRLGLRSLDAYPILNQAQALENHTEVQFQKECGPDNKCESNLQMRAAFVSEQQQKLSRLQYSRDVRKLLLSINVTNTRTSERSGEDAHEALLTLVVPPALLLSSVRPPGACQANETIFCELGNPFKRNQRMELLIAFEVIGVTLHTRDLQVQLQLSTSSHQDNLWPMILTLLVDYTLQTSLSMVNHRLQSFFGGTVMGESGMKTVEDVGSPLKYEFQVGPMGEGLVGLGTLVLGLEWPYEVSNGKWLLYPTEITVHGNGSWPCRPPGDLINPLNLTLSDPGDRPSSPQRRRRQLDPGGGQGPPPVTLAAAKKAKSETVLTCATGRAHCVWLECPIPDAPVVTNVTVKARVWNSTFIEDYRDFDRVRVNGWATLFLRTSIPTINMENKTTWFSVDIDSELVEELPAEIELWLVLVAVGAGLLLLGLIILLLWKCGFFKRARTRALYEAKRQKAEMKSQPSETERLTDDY
T1 sequence (P05556 21-798, chain 2 of 2): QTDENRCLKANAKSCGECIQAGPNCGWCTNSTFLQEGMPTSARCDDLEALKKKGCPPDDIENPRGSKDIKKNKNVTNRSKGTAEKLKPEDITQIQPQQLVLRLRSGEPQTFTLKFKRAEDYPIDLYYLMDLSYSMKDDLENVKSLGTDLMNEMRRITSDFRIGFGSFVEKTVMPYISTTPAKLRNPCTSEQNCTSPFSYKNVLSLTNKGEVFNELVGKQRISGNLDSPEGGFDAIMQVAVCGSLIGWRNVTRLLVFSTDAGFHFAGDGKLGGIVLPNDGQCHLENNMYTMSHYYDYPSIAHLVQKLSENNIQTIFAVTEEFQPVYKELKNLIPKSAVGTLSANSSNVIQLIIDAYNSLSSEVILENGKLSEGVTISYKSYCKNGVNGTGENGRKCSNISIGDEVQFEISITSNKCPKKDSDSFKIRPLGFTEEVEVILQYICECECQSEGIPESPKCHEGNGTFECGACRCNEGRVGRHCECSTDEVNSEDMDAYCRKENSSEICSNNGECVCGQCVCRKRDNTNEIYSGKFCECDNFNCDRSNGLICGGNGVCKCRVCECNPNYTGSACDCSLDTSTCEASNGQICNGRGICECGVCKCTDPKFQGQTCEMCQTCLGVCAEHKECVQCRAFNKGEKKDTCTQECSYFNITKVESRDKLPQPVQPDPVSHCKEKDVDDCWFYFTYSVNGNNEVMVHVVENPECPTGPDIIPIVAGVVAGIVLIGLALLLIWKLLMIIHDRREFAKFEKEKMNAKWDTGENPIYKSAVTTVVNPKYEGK
Description: (§1) Function-blocking experiments using monoclonal antibodies against various integrin subunits were carried out to examine whether α3β1 integrin, known as a surface receptor of βig-h3, would be involved in the cell adhesion mediated by the synthetic peptides EPDIM and NKDIL. HCE was preincubated at 37° C. for 30 min in the presence of each of the monoclonal antibodies (5 μg/ml) against different types of integrins. The preincubated cells were transferred onto plates precoated with 100 μM EPDIM or 100 μM NKDIL and then incubated further at 37° C. for 1 hour, followed by the quantitative analysis with hexosaminidase substrate as in Example 1-2.

α3β1 integrin [2] = target: T1, α3β1 integrin; assay: HCE cell adhesion and adhesion inhibition assays
Description: as §1

Binder	binding result (α3β1 integrin [1])	binding result (α3β1 integrin [2])
B1	binds	–
B2	–	binds
